In patent US20200010567A1 (NEURIMMUNE, published 2020):

Columns and labels:
GP20: H-(GP)20HHHHHH-NH2 = target: T1, GP20: H-(GP)20HHHHHH-NH2 (C-terminal amide); experiment: sandwich ELISA, peptide captured by anti-His antibody
T1 peptide: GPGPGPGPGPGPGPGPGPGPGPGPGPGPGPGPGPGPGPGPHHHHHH
Description: In brief, His-tagged dipeptide repeat protein peptides were synthesized and purified by Schafer-N(Copenhagen, Denmark): GA₂₀: H-(GA)₂₀HHHHHH-NH₂; GA₁₀: H-(GA)₁₀HHHHHH-NH₂; GA₆: H-(GA)₆HHHHHH-NH₂; GA₅: H-(GA)₅HHHHHH-NH₂; GA₄: H-(GA)₄HHHHHH-NH₂; GA₃: H-(GA)₃HHHHHH-NH₂; GA₂: H-(GA)₂HHHHHH-NH₂; GP₂₀: H-(GP)₂₀HHHHHH-NH₂; GP₁₀: H-(GP)₁₀HHHHHH-NH₂; GP₆: H-(GP)₆HHHHHH-NH₂; GP₅: H-(GP)₅HHHHHH-NH₂; GP₄: H-(GP)₄HHHHHH-NH₂; GP₃: H-(GP)₃HHHHHH-NH₂; GP₂: H-(GP)₂HHHHHH-NH₂. 96-well microplates (Corning Incorporated, Corning, USA) were coated with monoclonal mouse anti-His tag antibody (Takara Bio Europe/Clontech, Saint-Germain-en-Laye, France) at a concentration of 10 μg/ml in coating buffer (15 mM Na₂CO₃, 35 mM NaHCO₃, pH 9.42) overnight at 4° C. Non-specific binding sites were blocked for 1 h at room temperature with PBS/0.1% Tween®-20 containing 2% BSA (Sigma-Aldrich, Buchs, Switzerland). After a washing step, His-tagged C9orf72 DPR protein peptides at equal concentration of either 1 μM or 5 μM in PBS (pH 7.4) were added for target-trapping by the anti-His tag antibody for 1 h at room temperature. […] Antibody binding to DPR protein peptides was detected by a donkey anti-human IgG Fcγ-specific antibody conjugated with HRP at 1:5000 dilution (Jackson ImmunoResearch Laboratories, Inc., West Grove, USA) for 1 h at RT. Binding was determined by measurement of HRP activity in a standard colorimetric assay. EC₅₀ values were estimated by non-linear regression using GraphPad Prism software (San Diego, USA).

[1] = target: T2, (GA)15: H-CHHHHHH(GA)15-OH; experiment: indirect ELISA, uncoupled peptide coated, antibody titrated [also D00010 FIG. 2H]
T2 construct: synthetic, not coupled to BSA; also called poly-GA DPR protein peptide
T2 peptide: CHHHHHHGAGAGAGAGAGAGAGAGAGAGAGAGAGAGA
Method: In brief, dipeptide repeat proteins were synthesized and purified by Schafer-N(Copenhagen, Denmark): (GA)₁₅: H-CHHHHHH(GA)₁₅-OH; (GP)₁₅: H-C(GP)₁₅-OH; (GR)₁₅: H-C(GR)₁₅-OH; (PA)₁₅: H-C(PA)₁₅-OH; (PR)₁₅: H—C(PR)₁₅-OH. 96-well microplates (Corning Incorporated, Corning, USA) were coated with dipeptide repeat protein peptides at a concentration of either 5 μg/ml or 20 μg/ml in coating buffer (15 mM Na₂CO₃, 35 mM NaHCO₃, pH 9.42). Non-specific binding sites were blocked for 1 h at room temperature with PBS/0.1% Tween®-20 containing 2% BSA (Sigma-Aldrich, Buchs, Switzerland). Primary antibodies were diluted to the indicated concentrations and incubated for 1 h at room temperature, followed by incubation with a donkey anti-human IgG Fcγ-specific antibody conjugated with HRP (Jackson ImmunoResearch Laboratories, Inc., West Grove, USA). Binding was determined by measurement of HRP activity in a standard colorimetric assay. EC₅₀ values were estimated by non-linear regression using GraphPad Prism software (San Diego, USA). The binding specificity and EC₅₀ of human-derived antibodies for C9orf72 dipeptide repeat protein peptides (GA)₁₅, (GP)₁₅, (GR)₁₅, (PA)₁₅ and (PR)₁₅ were determined by indirect ELISA.

(PR)15: H-C(PR)15-OH = target: T3, (PR)15: H-C(PR)15-OH; experiment: indirect ELISA, coated uncoupled peptide
T3 construct: synthetic, not coupled to BSA; also called poly-PR DPR protein peptide
T3 peptide: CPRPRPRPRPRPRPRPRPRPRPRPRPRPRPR

(GR)15: H-C(GR)15-OH = target: T4, (GR)15: H-C(GR)15-OH; experiment: indirect ELISA, coated uncoupled peptide
T4 construct: synthetic, not coupled to BSA; also called poly-GR DPR protein peptide
T4 peptide: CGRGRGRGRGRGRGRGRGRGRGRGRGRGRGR

B1: NI-308.5G2 (antibody, V domains shown)
VH: EVQLVQSGADLRNPGASVTVSCTASGYHFADNAINWLRQAPGQRLEWMGWINIYSGNTKYSQNFQGRVTFTRNTSASTAFMHLRSLRSEDTAVYFCARDPDSSGYYLPYFDYWGQGTLVTVSS
VL: DIQLTQSPDSLTLSLGERATINCKSSQSVFYNSNNKNYLAWYQQKPGQPPKLLMYWASTRESGVTDRFSGSGSGTDFTLTITNLQAEDVAVYYCQQFYSSPLTFGGGTKVEIK
notes: Recombinant complete human IgG1, kappa
EC50 (GP20: H-(GP)20HHHHHH-NH2): 38.2 nM

B2: NI-308.46E9 (antibody, V domains shown)
VH: QVQLQESGPGLVKPSETLSLTCTVSGASISGSTYYWGWIRQPPGKGLEYIGRIYYSGSTYYNPSLKSRATISVDTSKNQLSLTLSSVTAADTAVYYCVRPFYAGSGNSPFDYWGQGTLVTVSS
VL: CEIVLTQSPATVSVSPGERATLSCRASQSVSTNLAWYQQKPGQPPRLLIYGASTRATGIPARFSGSGSGAEFTLTISSLQSEDFVVYYCQQYNNWPPAFGGGTKVEIK
notes: as for B1
EC50 [1]: > 200 nM

B3: NI-308.24E11 (antibody, V domains shown)
VH: QVQLQESGPGLVKPSETLSLTCTVSTTSLRSYFWSWIRQPPGKGLEWIGYVYYSGSTIYNPSLKNRVTISIDTSKNQFSLNLRSVTAADTAMYFCARGVPAETDARDFPPYYFDHWGQGTLVTVSS
VL: CDIQLTQSPSSLSASVGNRITFTCQASQDIRYYLNWYQQKPGKAPKLLIYDVSNLDTGVPPRFSGSGSGTNFTFTISSLQPEDIAVYYCQQYEGLPVTFGGGTKVEIK
notes: as for B1
EC50 ((PR)15: H-C(PR)15-OH): 12.8 nM

B4: NI-308.6B11 (antibody, V domains shown)
VH: EVQLVQSGAEVKRPGASVKVSCKVSGYTLTELSMHWVRQAPGKGLEWMGGFDPEDGETVYAQKFQGRVTMTEDTSTDTAYMELSSLRSEDTALYHCATYGSSWHWNEGNEGSYYFDYWGQGTLVTVSS
VL: CDIQMTQSPSSLSASVGDRVTITCQASQDISIYLNWYQQKPGKAPKLLIYDASNLETGVPSRFSGSGSGTDFTFTISGLQPEDVARYYCQQYDDLPITFGQGTRLEIK
notes: as for B1
EC50 ((GR)15: H-C(GR)15-OH): 0.94 nM
